Measured values as given in patent publication US20160089393A1, “COMPOSITION AND METHODS FOR COMBATING ANTIBACTERIAL RESISTANT BACTERIA” (BLUEBERRY THERAPEUTICS LIMITED, priority 2013, published 2016).

Legend:
EMRSA-15 [1] = experiment: Oxacillin sensitization: growth of EMRSA-15 with peptide, oxacillin and fixed PHMB; format: cell-based, methicillin-resistant Staphylococcus aureus (MRSA); design: key: 1 is growth; 0 is no growth; settings: MecA3136 0 uM, PHMB 0.25 μg/ml
Experimental: (§1) Synergy of PHMB and peptides (MecA3136, MecA3140) were tested by a standard checkerboard method of two-fold dilutions. PHMB and peptide were mixed at appropriate concentrations to a final volume of 30 μl in each well of a 96 well plate, and the mixtures were incubated at 20-22° C. for 30 mins before the addition of culture and oxacillin to a final volume of 150 μl. Plates were incubated and scored as above. FIC indices were calculated for wells without growth and containing the lowest combination of PHMB and peptide as follows: (A/MICA)+(B/MICB)=FICA+FICB=FIC index, where A is concentration of PHMB in combination, MICA is MIC of PHMB alone, B is concentration of peptide in combination, MICB is MIC of peptide alone. A control plate without oxacillin, and control wells of culture with increasing oxcaillin but without PHMB and peptide were included. […]

EMRSA-15 [2] = experiment: MIC by broth microdilution (antibacterial susceptibility test of EMRSA-15); format: cell-based, methicillin-resistant Staphylococcus aureus (MRSA); settings: Staphylococcus aureus, read-out: MIC of EMRSA-15 to oxacillin
Experimental: Antibacterial susceptibility test of EMRSA-15 was carried out according to NCCLS guidelines for broth micro broth dilution with modifications. EMRSA-15 was streaked from a −70° C. glycerol stock to Columbia base agar (Oxoid) supplemented with 5% horse blood (Oxoid) and 6 μg/ml oxacillin (Sigma), and incubated for 18-20 h at 33° C. Two to four bacterial colonies were inoculated into 3 ml Mueller Hinton broth (MHB, Oxoid) supplemented with 6 μg/ml oxacillin (Sigma) and incubated for 18-20 h at 33° C. with shaking at 180 rpm. Cultures were adjusted to OD625 0.08-0.1 (equivalent to 0.5 Mcfarland or 1-2×10^8 cfu/ml) with MHB and further diluted 1/50 to achieve a final concentration of 5×10^5 cfu per well. Susceptibility to either oxacillin, PHMB or peptides was tested by adding oxacillin (0-1024 μg/ml in MHB), PHMB (0-512 μg/ml in 1×PBS) or peptide (0-512 μg/ml in 1×PBS) to 75 μl of culture in a final volume of 150 μl per well. Plates were incubated at 33° C. for 24 h and growth was scored visually.

EMRSA-15 [3] = experiment: Checkerboard synergy of PHMB and MecA peptides with oxacillin (FIC index); format: cell-based, methicillin-resistant Staphylococcus aureus (MRSA); settings: Staphylococcus aureus
Experimental: Synergy of PHMB and peptides (MecA3136, MecA3140) were tested by a standard checkerboard method of two-fold dilutions. PHMB and peptide were mixed at appropriate concentrations to a final volume of 30 μl in each well of a 96 well plate, and the mixtures were incubated at 20-22° C. for 30 mins before the addition of culture and oxacillin to a final volume of 150 μl. Plates were incubated and scored as above. FIC indices were calculated for wells without growth and containing the lowest combination of PHMB and peptide as follows: (A/MICA)+(B/MICB)=FICA+FICB=FIC index, where A is concentration of PHMB in combination, MICA is MIC of PHMB alone, B is concentration of peptide in combination, MICB is MIC of peptide alone. A control plate without oxacillin, and control wells of culture with increasing oxcaillin but without PHMB and peptide were included.

EMRSA-15 [4] = experiment: Oxacillin sensitization: growth of EMRSA-15 with peptide, oxacillin and fixed PHMB; format: cell-based, methicillin-resistant Staphylococcus aureus (MRSA); design: key: 1 indicates growth; 0 indicates no growth; settings: PHMB 1 ug/ml
Experimental: as §1

EMRSA-15 [5] = experiment: as above; format: cell-based, methicillin-resistant Staphylococcus aureus (MRSA)
Experimental: as §1

[6] = target: T1, MecA (Penicillin binding protein 2A, PBP2A) (Staphylococcus aureus, UniProt P07944); experiment: In vitro binding to MecA and block of oxacillin binding; design: species or system methicillin-resistant Staphylococcus aureus (MRSA)
T1 construct: The primers were designed so that the first 23 amino acids at the N terminus were deleted; GST (N, cleaved yes); primer-encoded linker LEVLFQGP-M (my own translation of the forward primer); made in house; host or cells: Escherichia coli BL21(DE3)
T1 sequence (P07944 24-670): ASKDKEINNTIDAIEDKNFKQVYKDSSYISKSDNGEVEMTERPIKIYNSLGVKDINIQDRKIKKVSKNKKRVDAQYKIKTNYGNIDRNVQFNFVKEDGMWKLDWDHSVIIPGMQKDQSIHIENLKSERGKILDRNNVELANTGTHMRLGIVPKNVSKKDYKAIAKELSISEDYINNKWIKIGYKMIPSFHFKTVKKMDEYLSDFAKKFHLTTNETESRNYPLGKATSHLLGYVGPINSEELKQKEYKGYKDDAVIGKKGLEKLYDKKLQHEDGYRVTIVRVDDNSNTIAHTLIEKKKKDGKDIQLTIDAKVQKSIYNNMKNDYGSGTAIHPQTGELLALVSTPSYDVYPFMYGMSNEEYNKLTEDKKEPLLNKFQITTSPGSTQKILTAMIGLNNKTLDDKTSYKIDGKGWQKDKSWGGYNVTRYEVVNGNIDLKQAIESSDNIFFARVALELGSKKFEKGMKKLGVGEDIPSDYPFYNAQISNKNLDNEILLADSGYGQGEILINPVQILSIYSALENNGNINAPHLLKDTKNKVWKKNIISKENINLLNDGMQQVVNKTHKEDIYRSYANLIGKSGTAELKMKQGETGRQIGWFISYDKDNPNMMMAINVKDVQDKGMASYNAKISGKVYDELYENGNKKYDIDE
Experimental: For inhibitor screening recombinantly expressed and purified PBP2a is immobilised using an affinity tag to the surface of the wells of a microtiter plate. The wells are then incubated with serially diluted solutions of the peptide aptamer or indeed any possible inhibitor of PBP2a, plus a PBP2a substrate, such as BIO-AMP (Bobba et al. 2011) at a fixed concentration in PBS. After approximately 15 min, the binding reactions are stopped, and the plates were developed as described (Bobba et al. 2011). The background levels of fluorescence from control reactions are subtracted and then the inhibitor binding data are calculated and plotted to determine the Ki^app of binding.

Molecule: Cc1onc(-c2ccccc2)c1C(=O)N[C@@H]1C(=O)N2[C@@H]1SC(C)(C)[C@@H]2C(=O)O [Oxacillin, oxacillin, reference compound]
- Growth of EMRSA-15 (EMRSA-15 [1]; oxacillin 16 ug/ml): 1
- Growth of EMRSA-15 (EMRSA-15 [1]; oxacillin 32 ug/ml): 1
- Growth of EMRSA-15 (EMRSA-15 [1]; oxacillin 64 ug/ml): 1
- Growth of EMRSA-15 (EMRSA-15 [1]; oxacillin 128 ug/ml): 1
- Growth of EMRSA-15 (EMRSA-15 [1]; oxacillin 256 ug/ml): 0
- MIC (EMRSA-15 [2]; MHB + 0.25 μg/ml PHMB): 256 mg/L
- MIC (EMRSA-15 [2]; MHB + 176 μg/ml MecA3136): 128 mg/L
- MIC (EMRSA-15 [2]; MHB + 176 μg/ml MecA3140): 128 mg/L
- MIC (EMRSA-15 [2]; MHB): 128 mg/L
- MIC (EMRSA-15 [3]; oxacillin alone, checkerboard set of experiments): 256 mg/L
- MIC (EMRSA-15 [3]; with PHMB and MecA3136 at certain concentrations): 516 mg/L
- Growth of EMRSA-15 (EMRSA-15 [4]; E1 0 ug/ml, oxacillin 8 ug/ml): 1
- Growth of EMRSA-15 (EMRSA-15 [4]; E1 0 ug/ml, oxacillin 16 ug/ml): 1
- Growth of EMRSA-15 (EMRSA-15 [4]; E1 0 ug/ml, oxacillin 32 ug/ml): 1
- Growth of EMRSA-15 (EMRSA-15 [4]; E1 0 ug/ml, oxacillin 64 ug/ml): 1
- Growth of EMRSA-15 (EMRSA-15 [4]; E1 0 ug/ml, oxacillin 128 ug/ml): 0
- Growth of EMRSA-15 (EMRSA-15 [4]; HIW 0 ug/ml, oxacillin 16 ug/ml): 1
- Growth of EMRSA-15 (EMRSA-15 [4]; HIW 0 ug/ml, oxacillin 32 ug/ml): 1
- Growth of EMRSA-15 (EMRSA-15 [4]; HIW 0 ug/ml, oxacillin 64 ug/ml): 0

B1: E1: MecA (PBP2A) binding peptide aptamer, Sequence ID No. 4; different scaffold to MecA3136 and MecA3140 (protein)
chain: ASAATGVRAVPGNENSLEIEELARFAVDEHNKKENALLEFVRVVKAKEQHWKAKLGHDTMYYLTLEAKDGGKKKLYEAKVWVKLIPTKDFHLNFKELQEFKPVGDAAAAHHHHHH
modifications: Peptide sequence E1
notes: different scaffold to MecA3136 and MecA3140
- effect during the assay (EMRSA-15 [5]; oxacillin and 1 ug/ml PHMB): Sequence E1 is a different scaffold to MecA3136 and MecA3140, but in Table 11 shows a modest effect during the assay.
- enhancement of oxacillin activity (EMRSA-15 [5]; with PHMB): Clear enhancement of oxacillin activity
- binding to MecA and block of oxacillin binding [6]: bind to MecA and block oxycillin binding to MecA
- Growth of EMRSA-15 (EMRSA-15 [4]; E1 5 ug/ml, oxacillin 0 ug/ml): 1
- Growth of EMRSA-15 (EMRSA-15 [4]; E1 5 ug/ml, oxacillin 8 ug/ml): 1
- Growth of EMRSA-15 (EMRSA-15 [4]; E1 5 ug/ml, oxacillin 16 ug/ml): 1
- Growth of EMRSA-15 (EMRSA-15 [4]; E1 5 ug/ml, oxacillin 32 ug/ml): 1
- Growth of EMRSA-15 (EMRSA-15 [4]; E1 5 ug/ml, oxacillin 64 ug/ml): 0
- Growth of EMRSA-15 (EMRSA-15 [4]; E1 5 ug/ml, oxacillin 128 ug/ml): 0
- Growth of EMRSA-15 (EMRSA-15 [4]; E1 10 ug/ml, oxacillin 0 ug/ml): 1
- Growth of EMRSA-15 (EMRSA-15 [4]; E1 10 ug/ml, oxacillin 8 ug/ml): 1
- Growth of EMRSA-15 (EMRSA-15 [4]; E1 10 ug/ml, oxacillin 16 ug/ml): 1
- Growth of EMRSA-15 (EMRSA-15 [4]; E1 10 ug/ml, oxacillin 32 ug/ml): 1
- Growth of EMRSA-15 (EMRSA-15 [4]; E1 10 ug/ml, oxacillin 64 ug/ml): 0
- Growth of EMRSA-15 (EMRSA-15 [4]; E1 10 ug/ml, oxacillin 128 ug/ml): 0
- Growth of EMRSA-15 (EMRSA-15 [4]; E1 20 ug/ml, oxacillin 0 ug/ml): 1
- Growth of EMRSA-15 (EMRSA-15 [4]; E1 20 ug/ml, oxacillin 8 ug/ml): 1
- Growth of EMRSA-15 (EMRSA-15 [4]; E1 20 ug/ml, oxacillin 16 ug/ml): 1
- Growth of EMRSA-15 (EMRSA-15 [4]; E1 20 ug/ml, oxacillin 32 ug/ml): 0
- Growth of EMRSA-15 (EMRSA-15 [4]; E1 20 ug/ml, oxacillin 64 ug/ml): 0
- Growth of EMRSA-15 (EMRSA-15 [4]; E1 20 ug/ml, oxacillin 128 ug/ml): 0
